The supplement of paper PMC9876800

Tested on: peptide library, one residue held at a place counted from the S/T acceptor
Experiment: relative phosphorylation of the sub-library (ratio to the mean residue at this position); human; higher = residue favoured
Details: L fixed; at +3
How it was run: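 Relative sub-library phosphorylation is the ratio of each sub-library's signal to the mean residue at that position. The signal came from phosphorimaging of spots on streptavidin membranes, quantified by densitometry, after purified recombinant kinases reacted with biotinylated degenerate peptide sub-libraries in 384-well plates. Reactions held 50 μM peptide and 50 μM ATP spiked with γ-32P-ATP for 90 min under kinase-specific conditions.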

Chain of EIF2AK1, construct: Full length (Q9BQI3 whole entry, looked up): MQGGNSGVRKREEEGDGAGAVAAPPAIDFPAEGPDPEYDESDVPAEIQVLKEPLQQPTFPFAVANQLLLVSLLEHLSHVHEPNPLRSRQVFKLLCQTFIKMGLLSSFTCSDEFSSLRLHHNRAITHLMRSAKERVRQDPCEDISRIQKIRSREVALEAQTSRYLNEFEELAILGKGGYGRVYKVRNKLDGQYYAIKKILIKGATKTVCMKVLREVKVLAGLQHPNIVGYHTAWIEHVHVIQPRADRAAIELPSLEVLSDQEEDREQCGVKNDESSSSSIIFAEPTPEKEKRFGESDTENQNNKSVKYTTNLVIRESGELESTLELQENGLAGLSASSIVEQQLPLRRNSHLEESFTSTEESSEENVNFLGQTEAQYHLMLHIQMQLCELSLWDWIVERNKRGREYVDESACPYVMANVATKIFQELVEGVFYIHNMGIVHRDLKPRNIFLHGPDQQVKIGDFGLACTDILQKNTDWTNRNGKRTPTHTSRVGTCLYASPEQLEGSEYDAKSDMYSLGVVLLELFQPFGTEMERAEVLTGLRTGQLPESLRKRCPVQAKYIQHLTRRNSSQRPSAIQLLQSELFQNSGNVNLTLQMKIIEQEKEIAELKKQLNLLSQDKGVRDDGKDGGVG
Chain of CHEK2, construct: Full length (O96017 whole entry, looked up): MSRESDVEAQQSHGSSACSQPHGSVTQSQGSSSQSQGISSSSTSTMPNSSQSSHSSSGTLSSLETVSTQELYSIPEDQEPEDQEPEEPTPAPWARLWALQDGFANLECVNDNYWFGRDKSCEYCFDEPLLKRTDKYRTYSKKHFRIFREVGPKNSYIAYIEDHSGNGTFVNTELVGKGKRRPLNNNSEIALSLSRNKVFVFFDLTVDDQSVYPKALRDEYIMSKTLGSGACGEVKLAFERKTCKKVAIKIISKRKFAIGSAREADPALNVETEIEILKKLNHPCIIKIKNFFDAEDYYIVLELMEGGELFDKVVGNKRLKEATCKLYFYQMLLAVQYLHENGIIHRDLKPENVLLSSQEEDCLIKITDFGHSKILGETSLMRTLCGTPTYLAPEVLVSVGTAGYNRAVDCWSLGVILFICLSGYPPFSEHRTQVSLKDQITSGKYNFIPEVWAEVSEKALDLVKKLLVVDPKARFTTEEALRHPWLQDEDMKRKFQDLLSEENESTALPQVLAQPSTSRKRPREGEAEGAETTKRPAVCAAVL
Chain of CAMK1, construct: Full length (Q14012 whole entry, looked up): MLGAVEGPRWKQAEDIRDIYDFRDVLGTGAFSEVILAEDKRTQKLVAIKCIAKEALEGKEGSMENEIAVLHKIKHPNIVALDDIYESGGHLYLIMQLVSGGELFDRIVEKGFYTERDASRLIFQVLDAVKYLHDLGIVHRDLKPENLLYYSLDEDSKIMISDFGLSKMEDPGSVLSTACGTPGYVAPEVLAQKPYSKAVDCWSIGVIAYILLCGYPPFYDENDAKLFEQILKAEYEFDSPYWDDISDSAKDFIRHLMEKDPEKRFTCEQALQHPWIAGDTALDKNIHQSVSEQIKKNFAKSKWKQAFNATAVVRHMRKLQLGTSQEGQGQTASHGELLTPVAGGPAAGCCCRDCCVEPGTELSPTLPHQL
Chain of MOK, construct: aa1-343 (Q9UQ07 1-343, looked up): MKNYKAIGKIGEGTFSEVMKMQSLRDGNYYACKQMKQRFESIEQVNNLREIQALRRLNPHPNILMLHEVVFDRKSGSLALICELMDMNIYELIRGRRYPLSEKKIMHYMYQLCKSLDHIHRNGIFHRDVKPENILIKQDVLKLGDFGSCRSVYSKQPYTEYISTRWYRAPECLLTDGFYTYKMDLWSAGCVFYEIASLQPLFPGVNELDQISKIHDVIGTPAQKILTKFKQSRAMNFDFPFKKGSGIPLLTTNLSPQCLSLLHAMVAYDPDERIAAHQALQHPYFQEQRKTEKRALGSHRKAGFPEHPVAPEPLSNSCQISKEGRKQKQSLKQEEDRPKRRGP
Chain of MAP3K10, construct: aa1-449 (Q02779 1-449, looked up): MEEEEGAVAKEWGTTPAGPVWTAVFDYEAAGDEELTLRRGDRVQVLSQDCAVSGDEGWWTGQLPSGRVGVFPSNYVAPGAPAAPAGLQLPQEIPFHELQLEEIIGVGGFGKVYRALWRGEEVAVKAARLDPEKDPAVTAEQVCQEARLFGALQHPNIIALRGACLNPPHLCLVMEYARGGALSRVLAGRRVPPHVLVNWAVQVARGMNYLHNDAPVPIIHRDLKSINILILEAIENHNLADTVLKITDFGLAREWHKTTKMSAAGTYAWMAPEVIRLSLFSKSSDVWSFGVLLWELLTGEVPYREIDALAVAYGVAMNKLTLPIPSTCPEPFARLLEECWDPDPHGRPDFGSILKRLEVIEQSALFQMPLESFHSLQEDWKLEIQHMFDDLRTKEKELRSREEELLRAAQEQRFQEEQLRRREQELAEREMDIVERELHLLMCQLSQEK
Chain of TTBK1, construct: Full length (Q5TCY1 whole entry, looked up): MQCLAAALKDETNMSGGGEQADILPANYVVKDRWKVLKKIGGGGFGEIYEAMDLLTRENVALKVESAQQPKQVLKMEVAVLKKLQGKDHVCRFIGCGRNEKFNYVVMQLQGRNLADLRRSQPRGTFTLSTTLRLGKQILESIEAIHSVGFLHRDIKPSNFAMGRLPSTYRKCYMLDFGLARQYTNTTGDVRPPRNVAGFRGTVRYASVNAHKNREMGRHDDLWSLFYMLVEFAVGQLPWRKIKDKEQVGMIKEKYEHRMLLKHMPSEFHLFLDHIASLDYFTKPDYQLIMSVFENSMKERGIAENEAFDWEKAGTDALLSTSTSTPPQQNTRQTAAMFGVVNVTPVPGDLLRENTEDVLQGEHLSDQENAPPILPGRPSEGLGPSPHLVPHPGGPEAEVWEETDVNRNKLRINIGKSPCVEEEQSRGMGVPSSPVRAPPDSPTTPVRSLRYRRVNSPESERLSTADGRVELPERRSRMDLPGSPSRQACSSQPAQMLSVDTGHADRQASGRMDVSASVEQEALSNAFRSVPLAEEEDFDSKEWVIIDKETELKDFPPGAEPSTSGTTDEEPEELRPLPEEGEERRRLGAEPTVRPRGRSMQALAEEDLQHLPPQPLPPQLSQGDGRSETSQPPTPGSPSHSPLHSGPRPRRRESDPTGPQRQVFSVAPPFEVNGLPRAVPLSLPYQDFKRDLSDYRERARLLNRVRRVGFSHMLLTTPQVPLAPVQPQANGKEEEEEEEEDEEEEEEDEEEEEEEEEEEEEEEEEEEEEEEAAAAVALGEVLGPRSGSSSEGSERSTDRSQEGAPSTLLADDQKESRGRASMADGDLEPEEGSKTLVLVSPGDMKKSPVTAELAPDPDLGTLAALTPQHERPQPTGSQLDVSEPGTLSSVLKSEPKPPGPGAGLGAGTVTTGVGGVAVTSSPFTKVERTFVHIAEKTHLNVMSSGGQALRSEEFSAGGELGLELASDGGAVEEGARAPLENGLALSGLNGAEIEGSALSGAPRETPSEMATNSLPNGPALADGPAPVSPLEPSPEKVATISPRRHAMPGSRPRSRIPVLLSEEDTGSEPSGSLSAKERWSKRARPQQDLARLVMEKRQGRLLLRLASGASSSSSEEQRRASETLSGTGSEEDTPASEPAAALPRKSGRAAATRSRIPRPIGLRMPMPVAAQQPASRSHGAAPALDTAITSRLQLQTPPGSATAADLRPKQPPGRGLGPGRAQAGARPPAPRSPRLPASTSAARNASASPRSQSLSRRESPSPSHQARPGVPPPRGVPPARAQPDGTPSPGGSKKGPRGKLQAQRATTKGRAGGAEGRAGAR
Chain of MAP4K3, construct: aa1-380 (Q8IVH8 1-380, looked up): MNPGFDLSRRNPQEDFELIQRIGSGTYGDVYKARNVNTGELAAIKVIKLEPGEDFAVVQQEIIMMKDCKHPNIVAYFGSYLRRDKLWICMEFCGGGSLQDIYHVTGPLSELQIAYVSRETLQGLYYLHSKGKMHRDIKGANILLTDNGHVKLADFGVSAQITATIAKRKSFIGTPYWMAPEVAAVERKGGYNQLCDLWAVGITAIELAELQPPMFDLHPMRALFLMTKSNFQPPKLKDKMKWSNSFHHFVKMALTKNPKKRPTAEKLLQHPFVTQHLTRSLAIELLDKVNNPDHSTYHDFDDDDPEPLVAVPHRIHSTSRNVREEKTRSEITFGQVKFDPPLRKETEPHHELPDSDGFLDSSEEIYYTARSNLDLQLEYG

Substance | relative phosphorylation
EIF2AK1, construct: Full length (from UniProt Q9BQI3) | 0.904
PKN3, construct: Full length (from UniProt Q6P5Z2) | 0.894

Same assay, conditions: L fixed; at +4

Substance | relative phosphorylation
MOK, construct: aa1-343 (from UniProt Q9UQ07) | 0.904
TTBK1, construct: Full length (from UniProt Q5TCY1) | 0.965
CHEK2, construct: Full length (from UniProt O96017) | 0.859
MAP4K3, construct: aa1-380 (from UniProt Q8IVH8) | 0.722
CAMK1, construct: Full length (from UniProt Q14012) | 1.82
MAP3K10, construct: aa1-449 (from UniProt Q02779) | 0.75
EIF2AK1, construct: Full length (from UniProt Q9BQI3) | 0.936
PKN3, construct: Full length (from UniProt Q6P5Z2) | 0.738

Same assay, conditions: L fixed; at -1

Substance | relative phosphorylation
MOK, construct: aa1-343 (from UniProt Q9UQ07) | 0.712
TTBK1, construct: Full length (from UniProt Q5TCY1) | 1.7
CHEK2, construct: Full length (from UniProt O96017) | 1.28
MAP4K3, construct: aa1-380 (from UniProt Q8IVH8) | 0.859
CAMK1, construct: Full length (from UniProt Q14012) | 0.965
MAP3K10, construct: aa1-449 (from UniProt Q02779) | 0.973
EIF2AK1, construct: Full length (from UniProt Q9BQI3) | 1.15
PKN3, construct: Full length (from UniProt Q6P5Z2) | 0.77

Same assay, conditions: L fixed; at -2

Substance | relative phosphorylation
MOK, construct: aa1-343 (from UniProt Q9UQ07) | 1.2
TTBK1, construct: Full length (from UniProt Q5TCY1) | 2.09
CHEK2, construct: Full length (from UniProt O96017) | 0.843
MAP4K3, construct: aa1-380 (from UniProt Q8IVH8) | 0.655
CAMK1, construct: Full length (from UniProt Q14012) | 0.54
MAP3K10, construct: aa1-449 (from UniProt Q02779) | 0.789
EIF2AK1, construct: Full length (from UniProt Q9BQI3) | 0.56
PKN3, construct: Full length (from UniProt Q6P5Z2) | 0.569

Same assay, conditions: L fixed; at -3

Substance | relative phosphorylation
MOK, construct: aa1-343 (from UniProt Q9UQ07) | 0.587
TTBK1, construct: Full length (from UniProt Q5TCY1) | 1.24
CHEK2, construct: Full length (from UniProt O96017) | 0.217
MAP4K3, construct: aa1-380 (from UniProt Q8IVH8) | 0.602
CAMK1, construct: Full length (from UniProt Q14012) | 0.188
MAP3K10, construct: aa1-449 (from UniProt Q02779) | 0.731
EIF2AK1, construct: Full length (from UniProt Q9BQI3) | 1.07
PKN3, construct: Full length (from UniProt Q6P5Z2) | 0.413

Same assay, conditions: L fixed; at -4

Substance | relative phosphorylation
MOK, construct: aa1-343 (from UniProt Q9UQ07) | 0.739
TTBK1, construct: Full length (from UniProt Q5TCY1) | 1.07
CHEK2, construct: Full length (from UniProt O96017) | 1.02
MAP4K3, construct: aa1-380 (from UniProt Q8IVH8) | 0.748
CAMK1, construct: Full length (from UniProt Q14012) | 1.12
MAP3K10, construct: aa1-449 (from UniProt Q02779) | 0.698
EIF2AK1, construct: Full length (from UniProt Q9BQI3) | 1.06
PKN3, construct: Full length (from UniProt Q6P5Z2) | 0.775

Same assay, conditions: L fixed; at -5

Substance | relative phosphorylation
MOK, construct: aa1-343 (from UniProt Q9UQ07) | 0.761
TTBK1, construct: Full length (from UniProt Q5TCY1) | 0.95
CHEK2, construct: Full length (from UniProt O96017) | 2.42
MAP4K3, construct: aa1-380 (from UniProt Q8IVH8) | 0.637
CAMK1, construct: Full length (from UniProt Q14012) | 2.97
MAP3K10, construct: aa1-449 (from UniProt Q02779) | 0.712
EIF2AK1, construct: Full length (from UniProt Q9BQI3) | 1.08
PKN3, construct: Full length (from UniProt Q6P5Z2) | 1.34

Same assay, conditions: M fixed; at +1

Substance | relative phosphorylation
MOK, construct: aa1-343 (from UniProt Q9UQ07) | 0.253
TTBK1, construct: Full length (from UniProt Q5TCY1) | 1.5
CHEK2, construct: Full length (from UniProt O96017) | 1.5
MAP4K3, construct: aa1-380 (from UniProt Q8IVH8) | 2.73
CAMK1, construct: Full length (from UniProt Q14012) | 1.21
MAP3K10, construct: aa1-449 (from UniProt Q02779) | 1.33
EIF2AK1, construct: Full length (from UniProt Q9BQI3) | 1.77
PKN3, construct: Full length (from UniProt Q6P5Z2) | 1.83

Same assay, conditions: M fixed; at +2

Substance | relative phosphorylation
MOK, construct: aa1-343 (from UniProt Q9UQ07) | 0.935
TTBK1, construct: Full length (from UniProt Q5TCY1) | 1.31
CHEK2, construct: Full length (from UniProt O96017) | 0.978
MAP4K3, construct: aa1-380 (from UniProt Q8IVH8) | 0.664
CAMK1, construct: Full length (from UniProt Q14012) | 0.986
MAP3K10, construct: aa1-449 (from UniProt Q02779) | 0.634
EIF2AK1, construct: Full length (from UniProt Q9BQI3) | 0.895
PKN3, construct: Full length (from UniProt Q6P5Z2) | 0.728

Same assay, conditions: M fixed; at +3

Substance | relative phosphorylation
MOK, construct: aa1-343 (from UniProt Q9UQ07) | 0.967
TTBK1, construct: Full length (from UniProt Q5TCY1) | 1.29
CHEK2, construct: Full length (from UniProt O96017) | 1.04
MAP4K3, construct: aa1-380 (from UniProt Q8IVH8) | 0.51
CAMK1, construct: Full length (from UniProt Q14012) | 0.938
MAP3K10, construct: aa1-449 (from UniProt Q02779) | 0.985
EIF2AK1, construct: Full length (from UniProt Q9BQI3) | 0.938
PKN3, construct: Full length (from UniProt Q6P5Z2) | 0.833

Same assay, conditions: M fixed; at +4

Substance | relative phosphorylation
MOK, construct: aa1-343 (from UniProt Q9UQ07) | 1.05
TTBK1, construct: Full length (from UniProt Q5TCY1) | 0.855
CHEK2, construct: Full length (from UniProt O96017) | 0.929
MAP4K3, construct: aa1-380 (from UniProt Q8IVH8) | 0.9
CAMK1, construct: Full length (from UniProt Q14012) | 1.37
MAP3K10, construct: aa1-449 (from UniProt Q02779) | 0.746
EIF2AK1, construct: Full length (from UniProt Q9BQI3) | 0.893
PKN3, construct: Full length (from UniProt Q6P5Z2) | 0.858

Same assay, conditions: M fixed; at -1

Substance | relative phosphorylation
MOK, construct: aa1-343 (from UniProt Q9UQ07) | 1.22
TTBK1, construct: Full length (from UniProt Q5TCY1) | 1.08
CHEK2, construct: Full length (from UniProt O96017) | 1.15
MAP4K3, construct: aa1-380 (from UniProt Q8IVH8) | 1.05
